Measured values from patent US20110104179A1.

How the values were obtained:
Assay in all cases: cell-based or functional assay
[1] = target: Arg- and Lys-specific proteinases of P. gingivalis ATCC 33277 whole cells (DQ BSA assay) (Porphyromonas gingivalis ATCC 33277)
[2] = target: Lys-gingipain (Kgp) of P. gingivalis ATCC 33277 whole cells (Porphyromonas gingivalis ATCC 33277) (UniProt B2RLK2)
[3] = target: Arg-gingipains of P. gingivalis ATCC 33277 whole cells (Porphyromonas gingivalis ATCC 33277)

For “κ-casein(106-137) (from UniProt P02668 127-158) (peptide)”, the inhibition of protease activity in the fluorescence assay (DQ Green BSA), whole ATCC 33277 cells, peptide 500 µM [1] was 37 % inhibition.
With β-casein(193-209) (peptide) the Protease activity (%), Lys assay, ATCC 33277 whole cell, peptide 100 µM [2] was 71%, the Protease activity (%), Lys assay, ATCC 33277 whole cell, peptide 200 µM [2] was 59% and the Protease activity (%), Lys assay, ATCC 33277 whole cell, peptide 300 µM [2] was 49%. For the same substance, the inhibition in the Lys-specific protease assays, whole cells, peptide: ZnCl2 mixture [2] was 90 % inhibition, the Activity with ATCC33277, Arg-gingipains, peptide 100 µM alone (no inhibitor 29.23 + 0.06) [3] was 20 and the Protease activity (%), Arg assay, ATCC 33277 whole cell, peptide 100 µM [3] was 69%. It also gave a Protease activity (%), Arg assay, ATCC 33277 whole cell, peptide 200 µM [3] of 50%, a Protease activity (%), Arg assay, ATCC 33277 whole cell, peptide 300 µM [3] of 50% and an inhibition of Arg-specific proteolytic activity, whole cells, peptide 100 µM alone [3] of 30 % inhibition. It also gave an inhibition of Arg-specific proteolytic activity, whole cells, peptide and ZnCl2 in a 1:4 ratio [3] of 70 % inhibition.
With αS1-casein(11-23) (peptide) the Protease activity (%), Lys assay, ATCC 33277 whole cell, peptide 100 µM [2] was 64%, the Protease activity (%), Lys assay, ATCC 33277 whole cell, peptide 200 µM [2] was 43% and the Protease activity (%), Lys assay, ATCC 33277 whole cell, peptide 300 µM [2] was 34%. For the same substance, the inhibition in the Lys-specific protease assays, whole cells, inhibitor mixture with ZnCl2 [2] was 85 % inhibition, the Activity with ATCC33277, Arg-gingipains, peptide 100 µM alone (no inhibitor 29.23 + 0.06) [3] was 18 and the Protease activity (%), Arg assay, ATCC 33277 whole cell, peptide 100 µM [3] was 62%. The Protease activity (%), Arg assay, ATCC 33277 whole cell, peptide 200 µM [3] was 39%, the Protease activity (%), Arg assay, ATCC 33277 whole cell, peptide 300 µM [3] was 38% and the inhibition of Arg-specific proteolytic activity, whole cells, peptide 100 µM alone [3] was 40 % inhibition. It also gave an inhibition of Arg-specific proteolytic activity, whole cells, peptide and ZnCl2 in a 1:4 ratio [3] of 70 % inhibition.
“κ-casein(109-137) (peptide; modification not given)” was tested, and the Protease activity (%), Arg assay, ATCC 33277 whole cell, peptide 50 µM [3] was 84% and the Protease activity (%), Arg assay, ATCC 33277 whole cell, peptide 100 µM [3] was 36%.
Work on κ-casein(117-123) (peptide) yielded an Arg-Specific Activity (%), ATCC 33277 whole cells, BApNA, peptide 200 µM [3] of 111%, an Arg-Specific Activity (%), ATCC 33277 whole cells, BApNA, peptide 500 µM [3] of 90% and an Arg-Specific Activity (%), ATCC 33277 whole cells, BApNA, peptide 1000 µM [3] of 92%.
In the case of κ-casein(127-137) (peptide), the Arg-Specific Activity (%), ATCC 33277 whole cells, BApNA, peptide 200 µM [3] is reported as 102%, the Arg-Specific Activity (%), ATCC 33277 whole cells, BApNA, peptide 500 µM [3] is reported as 97% and the Arg-Specific Activity (%), ATCC 33277 whole cells, BApNA, peptide 1000 µM [3] is reported as 82%.
For β-casein(193-205) (peptide), the inhibition of whole cell Arg-specific proteolytic activity, peptide 200 µM [3] was 15 % inhibition.
Work on “Non-glycosylated κ-casein(106-169) (from UniProt P02668 127-190) (peptide)” yielded an inhibition of proteinase activity against fluorescent BSA (DQ Green BSA), whole ATCC 33277 cells, peptide 500 µM [1] of 60 % inhibition.
